Assay results reported in the MegaScale stability set (Tsuboyama et al. 2023).

B1: r16_88_TrROS_Hall (parent)
chain: EVIELKIKFKTPEQREKLKEIAKKLNAEVVEEKDGEVIIRFKTPEQAERALKEAEKLGAEVEL

Variants of: B1
Assay: folding stability dG (cDNA display proteolysis); higher = more stable
Settings: PBS, room temperature

Row | Variant | folding stability dG
1 | K17L | 4.53 kcal/mol
2 | Q46C | 4.41 kcal/mol
3 | Q46M | 4.15 kcal/mol
4 | Q46W | 4.2 kcal/mol
5 | Q46T | 4.25 kcal/mol
6 | Q46L | 4.28 kcal/mol
7 | K6V | 4.37 kcal/mol
8 | K6F | 4.76 kcal/mol
9 | K6L | 4.32 kcal/mol
10 | K6C | 4.34 kcal/mol
11 | K6D | 3.67 kcal/mol
12 | E62S | 4.5 kcal/mol
13 | E62W | 3.87 kcal/mol
14 | E62M | 4.24 kcal/mol
15 | E62A | 4.5 kcal/mol
16 | E55H | 4.21 kcal/mol
17 | P12V | 4.49 kcal/mol
18 | P12Y | 4.91 kcal/mol
19 | P12N | 4.23 kcal/mol
20 | E45K | 4.42 kcal/mol
21 | E45H | 4.08 kcal/mol
22 | E45G | 4.38 kcal/mol
23 | N26K | 4.44 kcal/mol
24 | N26Q | 4.45 kcal/mol

Row | Variant | folding stability dG
25 | N26F | 4.24 kcal/mol
26 | N26M | 4.53 kcal/mol
27 | N26V | 4.35 kcal/mol
28 | N26S | 4.45 kcal/mol
29 | K56T | 4.48 kcal/mol
30 | K56R | 4.15 kcal/mol
31 | K56V | 4.45 kcal/mol
32 | E60A | 4.12 kcal/mol
33 | E1M | 4.3 kcal/mol
34 | E1C | 4.27 kcal/mol
35 | E1Y | 4.34 kcal/mol
36 | E1R | 3.94 kcal/mol
37 | E1G | 4.57 kcal/mol
38 | E1S | 4.32 kcal/mol
39 | E1A | 4.45 kcal/mol
40 | A27D | 3.12 kcal/mol
41 | A27S | 4.31 kcal/mol
42 | A27Y | 4.25 kcal/mol
43 | L63I | 4.22 kcal/mol
44 | L63Y | 4.35 kcal/mol
45 | L63E | 4.22 kcal/mol
46 | L63V | 4.25 kcal/mol
47 | K52M | 4.28 kcal/mol
48 | K52Q | 4.1 kcal/mol

Row | Variant | folding stability dG
49 | K52C | 4.33 kcal/mol
50 | K19S | 4.25 kcal/mol
51 | K19V | 4.14 kcal/mol
52 | V37E | 3.36 kcal/mol
53 | V37S | 4.19 kcal/mol
54 | V37F | 4.55 kcal/mol
55 | V37G | 3.63 kcal/mol
56 | E32R | 4.3 kcal/mol
57 | E32C | 4.53 kcal/mol
58 | R49Y | 4.93 kcal/mol
59 | R49T | 4.04 kcal/mol
60 | R49M | 4.46 kcal/mol
61 | G35K | 4.24 kcal/mol
62 | G35S | 4.48 kcal/mol
63 | G35W | 4.46 kcal/mol
64 | G35T | 4.36 kcal/mol
65 | G35H | 4.16 kcal/mol
66 | E4W | 4.66 kcal/mol
67 | E4I | 4.54 kcal/mol
68 | P44T | 4.46 kcal/mol
69 | P44G | 4.37 kcal/mol
70 | P44N | 4.55 kcal/mol
71 | Q14W | 4.3 kcal/mol
72 | Q14N | 4.47 kcal/mol

Row | Variant | folding stability dG
73 | Q14F | 4.25 kcal/mol
74 | G58D | 4.42 kcal/mol
75 | G58H | 4.27 kcal/mol
76 | I21D | 3.4 kcal/mol
77 | I21H | 4.29 kcal/mol
78 | I21T | 4.33 kcal/mol
79 | I21M | 4.43 kcal/mol
80 | I21E | 4 kcal/mol
81 | I21A | 4.15 kcal/mol
82 | E36M | 4.48 kcal/mol
83 | E36T | 4.59 kcal/mol
84 | E36C | 4.39 kcal/mol
85 | K33L | 4.59 kcal/mol
86 | K33V | 4.35 kcal/mol
87 | K33P | 4.27 kcal/mol
88 | R40D | 3.83 kcal/mol
89 | R40L | 4.5 kcal/mol
90 | R40P | 2.96 kcal/mol
91 | E53Q | 4.42 kcal/mol
92 | L51G | 4.45 kcal/mol
93 | L51H | 4.79 kcal/mol
94 | L51Q | 4.53 kcal/mol
95 | L51I | 4.41 kcal/mol
96 | R15G | 3.95 kcal/mol

Row | Variant | folding stability dG
97 | R15L | 4.18 kcal/mol
98 | V61P | 4.14 kcal/mol
99 | V61T | 4.2 kcal/mol
100 | V61C | 4.16 kcal/mol
101 | E28Y | 4.36 kcal/mol
102 | E28A | 4.29 kcal/mol
103 | E28I | 4.45 kcal/mol
104 | I39A | 4.41 kcal/mol
105 | I39R | 0.96 kcal/mol
106 | A50L | 4.28 kcal/mol
107 | A50D | 2.77 kcal/mol
108 | A50P | 2.96 kcal/mol
109 | A50K | 2.55 kcal/mol
110 | A50G | 4.46 kcal/mol
111 | A47V | 4.63 kcal/mol
112 | A47S | 4.39 kcal/mol
113 | A47Q | 4.8 kcal/mol
114 | E16M | 4.6 kcal/mol
115 | A22E | 4.17 kcal/mol
116 | A22N | 4.12 kcal/mol
117 | A22P | 3.7 kcal/mol
118 | A22D | 2.91 kcal/mol
119 | I3L | 4.63 kcal/mol
120 | I3W | 4.71 kcal/mol

Row | Variant | folding stability dG
121 | I3G | 4.47 kcal/mol
122 | I3D | 4.52 kcal/mol
123 | K10C | 4.2 kcal/mol
124 | K10V | 4.2 kcal/mol
125 | K10P | 4.2 kcal/mol
126 | K10G | 4.21 kcal/mol
127 | K10W | 4.3 kcal/mol
128 | E31V | 4.37 kcal/mol
129 | E31C | 4.51 kcal/mol
130 | E31Y | 4.46 kcal/mol
131 | E13D | 4.3 kcal/mol
132 | E13Q | 4.57 kcal/mol
133 | E13Y | 4.76 kcal/mol
134 | K24N | 4.46 kcal/mol
135 | K24S | 4.47 kcal/mol
136 | K24H | 4.3 kcal/mol
137 | K24W | 4.77 kcal/mol
138 | L57R | 3.57 kcal/mol
139 | L57M | 4.31 kcal/mol
140 | L57W | 4.6 kcal/mol
141 | L57H | 4.26 kcal/mol
142 | E20I | 4.45 kcal/mol
143 | E20M | 4.79 kcal/mol
144 | I38S | 4.26 kcal/mol

Row | Variant | folding stability dG
145 | I38A | 4.26 kcal/mol
146 | V29P | 4.1 kcal/mol
147 | V29T | 4.21 kcal/mol
148 | D34M | 4.5 kcal/mol
149 | D34W | 4.32 kcal/mol
150 | A54Y | 4.16 kcal/mol
151 | A54E | 3.03 kcal/mol
152 | A54K | 3.51 kcal/mol
153 | A54N | 3.65 kcal/mol
154 | V2Y | 4.53 kcal/mol
155 | V2E | 4.13 kcal/mol
156 | V2I | 4.15 kcal/mol
157 | K8L | 4.31 kcal/mol
158 | K8D | 3.72 kcal/mol
159 | I7V | 4.44 kcal/mol
160 | E48R | 4.25 kcal/mol
161 | E48C | 4.52 kcal/mol
162 | E48A | 4.5 kcal/mol
163 | E48Q | 4.37 kcal/mol
164 | L18V | 4.26 kcal/mol
165 | L18I | 4.33 kcal/mol
166 | L18Q | 2.9 kcal/mol
167 | L18Y | 4.53 kcal/mol
